Source: patent US20100178253A1 (published 2010)
Bridges are numbered along the chain shown (N, C = ends).

Assays:
human serum albumin = target: T1, human serum albumin (human, UniProt P02768 25-609); assay: fluorescence polarisation, change of polarisation value with human serum albumin
T1 construct: also called HSA; plasma protein (PPB)

[1] = target: T2, human c-Met/Fc chimera (R&D Systems) (human, UniProt P08581 25-932); assay: fluorescence polarisation (anisotropy), 5 nM dye-labelled peptide, c-Met/Fc 0-250 nM, one-site fit
T2 construct: Bought from R&D Systems; Printed once as 'c-Met/Fe chimera' [sic]; also called human c-Met/Fe chimera; not shown: Fc part (and any linker or tag) of the bought chimera
T2 sequence (P08581 25-932 limits assumed, change not shown): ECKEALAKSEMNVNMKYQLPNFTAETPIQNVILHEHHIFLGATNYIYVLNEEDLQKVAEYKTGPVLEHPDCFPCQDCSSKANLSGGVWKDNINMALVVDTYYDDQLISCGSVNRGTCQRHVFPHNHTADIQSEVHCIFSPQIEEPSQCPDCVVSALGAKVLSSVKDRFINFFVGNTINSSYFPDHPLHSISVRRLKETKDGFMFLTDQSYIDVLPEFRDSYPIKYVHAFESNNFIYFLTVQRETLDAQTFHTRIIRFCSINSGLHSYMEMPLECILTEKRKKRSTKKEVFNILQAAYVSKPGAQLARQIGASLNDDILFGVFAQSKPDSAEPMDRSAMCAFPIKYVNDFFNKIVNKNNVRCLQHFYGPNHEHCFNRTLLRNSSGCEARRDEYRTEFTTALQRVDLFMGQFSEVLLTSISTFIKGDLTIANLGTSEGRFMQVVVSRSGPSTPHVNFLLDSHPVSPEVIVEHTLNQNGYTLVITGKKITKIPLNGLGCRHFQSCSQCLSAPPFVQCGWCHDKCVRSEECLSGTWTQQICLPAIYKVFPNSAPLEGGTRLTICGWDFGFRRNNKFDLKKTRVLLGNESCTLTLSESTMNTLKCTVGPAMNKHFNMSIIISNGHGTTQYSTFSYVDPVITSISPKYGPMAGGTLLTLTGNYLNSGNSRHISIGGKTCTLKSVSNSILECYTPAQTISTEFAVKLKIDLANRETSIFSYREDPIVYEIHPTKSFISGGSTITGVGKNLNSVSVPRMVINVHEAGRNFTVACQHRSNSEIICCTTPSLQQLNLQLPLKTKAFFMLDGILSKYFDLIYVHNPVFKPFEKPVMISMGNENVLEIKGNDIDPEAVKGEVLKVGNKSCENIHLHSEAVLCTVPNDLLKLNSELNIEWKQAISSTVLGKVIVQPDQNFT
Description: The fluorescence anisotropy measurements were performed in 384-well microplates in a volume of 10 μL in binding buffer (PBS, 0.01% Tween-20, pH 7.5) using a Tecan Safire fluorescence polarisation plate reader (Tecan, US) at Ex 635/Em 678 nm. The to concentration of dye-labelled peptide was held constant (5 nM) and the concentration of the human c-Met/Fe chimera (R&D Systems) was varied from 0-250 nM. Binding mixtures were equilibrated in the microplate for 10 min at 30° C. The observed change in anisotropy was fit to the equation

T1 sequence (P02768 25-609 limits assumed): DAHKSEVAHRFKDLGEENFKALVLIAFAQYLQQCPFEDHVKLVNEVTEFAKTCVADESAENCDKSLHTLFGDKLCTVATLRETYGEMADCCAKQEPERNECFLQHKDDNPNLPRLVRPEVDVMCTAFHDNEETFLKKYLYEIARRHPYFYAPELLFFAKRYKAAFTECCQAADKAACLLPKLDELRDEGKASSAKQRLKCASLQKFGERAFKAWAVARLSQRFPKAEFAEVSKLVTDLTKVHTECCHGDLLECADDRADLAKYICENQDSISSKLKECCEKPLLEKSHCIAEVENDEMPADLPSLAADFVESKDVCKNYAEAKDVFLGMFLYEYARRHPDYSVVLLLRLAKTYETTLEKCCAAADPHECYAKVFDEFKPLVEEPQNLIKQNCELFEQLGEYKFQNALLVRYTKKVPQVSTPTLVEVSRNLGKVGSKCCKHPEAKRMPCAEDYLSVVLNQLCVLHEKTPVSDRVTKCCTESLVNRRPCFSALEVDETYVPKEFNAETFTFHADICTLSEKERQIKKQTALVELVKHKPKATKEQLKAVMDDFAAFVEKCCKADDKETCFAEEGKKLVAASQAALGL

B1: Compound 6 ([Peptide 1]-DY-652 conjugate) (peptide)
peptide: Ac-AGSCYCSGPPRFECWCYETEGTGGGK-NH2
modifications: disulfide 6-14, 4-16; not fully specified (residue 26); also: DY-652 dye attached, site not given here
PPB (% change in polarisation value) (human serum albumin): 46%
Kd [1]: 0.9 nM

B2: Compound 1 ([Peptide 1]-DY-630 conjugate) (peptide)
peptide: Ac-AGSCYCSGPPRFECWCYETEGTGGGK-NH2
modifications: disulfide 6-14, 4-16; not fully specified (residue 26); also: DY-630 dye attached, site not given here
notes: Printed in three-letter code, turned into one-letter code here
PPB (% change in polarisation value) (human serum albumin): 36%
Kd [1]: 2.2 nM

B3: Compound 2 ([Peptide 1]-DY-631 conjugate) (peptide)
peptide: Ac-AGSCYCSGPPRFECWCYETEGTGGGK-NH2
modifications: disulfide 6-14, 4-16; not fully specified (residue 26); also: DY-631 dye attached, site not given here
PPB (% change in polarisation value) (human serum albumin): 33%
Kd [1]: 0.5 nM

B4: Compound 3 ([Peptide 1]-DY-633 conjugate) (peptide)
peptide: Ac-AGSCYCSGPPRFECWCYETEGTGGGK-NH2
modifications: disulfide 6-14, 4-16; not fully specified (residue 26); also: DY-633 dye attached, site not given here
PPB (% change in polarisation value) (human serum albumin): 27%
Kd [1]: 0.5 nM

B5: Compound 4 ([Peptide 1]-DY-650 conjugate) (peptide)
peptide: Ac-AGSCYCSGPPRFECWCYETEGTGGGK-NH2
modifications: disulfide 6-14, 4-16; not fully specified (residue 26); also: DY-650 dye attached, site not given here
PPB (% change in polarisation value) (human serum albumin): 55%
Kd [1]: 3.2 nM

B6: Compound 5 ([Peptide 1]-DY-651 conjugate) (peptide)
peptide: Ac-AGSCYCSGPPRFECWCYETEGTGGGK-NH2
modifications: disulfide 6-14, 4-16; not fully specified (residue 26); also: DY-651 dye attached, site not given here
PPB (% change in polarisation value) (human serum albumin): 49%
Kd [1]: 2.2 nM
